Data on two substances can be found in patent US20050244400A1.

Assay [1] has as its target GAA Δ 817-952 (human GAA lacking C-terminal residues 817-952) (human) (UniProt P10253). Nature of the assay: cell-based or functional assay.
The target of assay [2] is GAAΔ791-952-GILTΔ1-7 (GAA truncated with the GILT tag fused at position 791) (human) (UniProt P10253). Nature of the assay: cell-based or functional assay.

Turning to “SS-GAA-791-952 (human IGF-II signal sequence fused to human GAA residues 791-952, the C-terminal domain) (from UniProt P10253 791-952) (enzyme)”, the GAA activity (nmol/hr-ml) in media of co-transfected HEK293 cells in assay [1] worked out at 14 nmol/h/mL; in assay [2] it was 2 nmol/h/mL.
In turn, “SS-GAA-817-952 (from UniProt P10253 817-952) (enzyme)” had a GAA activity (nmol/hr-ml) in media of co-transfected HEK293 cells in assay [2] of 1 nmol/h/mL.
